Results from the DeepSol protein solubility set.

Test: soluble on expression in E. coli; label from the status in PepcDB or PDB records

Row | Sequence | soluble on expression in E. coli
1 | MSLSKHHIIVKSGSTLEQLAKAKTFAFDKTGTLTQNQLVIQDVLPENGFDKETIQSYAASLEQQSDHIIANSLVQGTDKNLIQAVSNLQESTGNGVSGTVDGKNVMVGKLSYVAPDANVNKAKTTAVYVSVDGKYAGCITFKDRLRPETPQTLARLRKQGAKHIMMLTGDNKDVAQAIADVAGVDDVRASLLPAQKIEAIKNVAPENRPVVMTGDGINDAPSLTAADVGIAMGAKGASAASESADAVIMVNDLSKINDAVAIAKHTMKVAEGHHHHHH | soluble
2 | MSLSLEERERAVELYFTTPMTTAQVVEHLGYPTRQCLERWLAMDSRYAGHMAKPIIPLETRRRAVELVLGGMQQKQAAKQLGVSVGAVHGWVRAYRKGGMAALQPKNRNSAQGNKPADSRRRPSAADDDDAEALRRRVEELELENALMREVVEVVKKDPGADLRRLSNREKTLLIDRLRPAYSLRSMTCLLAIAPSSYHYHHARLGVDKYAGLRAEVAGAFADSKGRYGYRRIKAVLKTGVSEKVVRRIMAEEGLVAHVPKRRRYSSYEGETTPAPANLVDRDFTAERPNEKWLTDISEIKARDGKVYLSPMIDCFDGKIVAYTAGFSPNAELANRMLEKAASTLPGNARPLVHSDRGCHYRWPGWLGLMERFGLTRSMSAKGCSPDNAAAEGFFGRMKTESVYPEHWEKRTRDEVLILIDDYIRWYNHERIKRSLGWMSPVQYRQSQGMAEGHHHHHH | not soluble
3 | MSLSLSLEVLERLVAFETVSDRPNLDMIAYVEDFLRTRGFRVHRIADPEEAKAGLFAEIGPSVDGGLLLSAHSDVVPVEGQSWCVPPFKLTRQGDKLYGRGTTDMKGFLAEMLALADVVHRRDLHAPLKLLISYDEEIGCVGISRMKDRLRPLLGRPELAIVGEPTEMQVAISHKGKRSYRADFRGEAGHSALAPRFVNALHLAVDFVTKLRQMQDEFRQDGNFNGDYDVPYTTLHVGQLHGGEALNLVPDKATLLFEFRHLAEDDPEVIEARIQQAADAVKGNYADVAHISLDALAGYPGLSVAVSEPLVSRVRSWCDGNISHVAFGTEAGVLSELGIQTVVCGPGSMAEQGHKPDEFISEHQLAACSNMLRKGAEEMLYCAEGHHHHHH | soluble
4 | MSLSMKSELRKQVLHEMKAISQEQKQAIDQALTERLLHHPFYQEAKVIATYLSFSHEFQTRELIEQALKDGKKVLIPKTYPKGRMEFVAYDPQQLVKTSFALLEPQGDVEVVDASQIDLIHVPGLAFTTKGYRIGYGGGYYDRYLEHFSGRTLSTIYPCQIQDFIPEEGHHHHHH | not soluble
5 | MSLSMLEKVSFSTTPDFELGFEHCPRQTDYLIAQPKERAKGLVVYIPGFGDDAGEYREKFCLKVAEKYDLAAMTVDYHCFYSRPEVHSATAYEAEDVALIEKLFLAHNLPFAGDTIEEGIEILNKHLASHNQKASITATLIPGKDEYQNAGVLQALDIINAVGHAIEKYSIPAENVILIGSSYGGYIANLATKFAPKTFRAVFDNSSWAQPHFTYIVGREYGYPELIHKTHSHIATKLFLRTAWTLKKGLPNTFDGKRFYVRTFSEDQLGQFSSYEPETYYYFIHAEKDKLALTEHKIQMATYMIQREMNVHMEVMEAADIDGQYIKTIEHGMNLSMLTFFDKAYAHINDHTISLENDFMNGSLVGYDSGDHRYEFDFSTFPVTGRVTQKAVAEGHHHHHH | soluble
6 | MSLSNAVAQDLMTIADIVEATTTAPIPFHITAFDGSFTGPEDAPYQLFVANTDAVSYIATAPGDLGLARAYLMGDLIVEGEHPGHPYGIFDALKEFYRCFKRPDASTTLQIMWTLRKMNALKFQEIPPMEQAPAWRKALINGLASRHSKSRDKKAISYHYDVGNEFYSLFLDDSMTYTCAYYPTPESSLEEAQENKYRLIFEKLRLKEGDRLLDVGCGWGGMVRYAAKHGVKAIGVTLSEQQYEWGQAEIKRQGLEDLAEIRFMDYRDVPETGFDAISAIGIIEHIGVNNYPDYFELLSSKLKTGGLMLNHSITYPDNRPRHAGAFIDRYIFPDGELTGSGTLIKHMQDNGFEVLHEENLRFDYQRTLHAWCENLKENWEEAVELAGEPTARLFGLYMAGSEWGFAHNIVQLHQVLGVKLDEQGSRGEVPERMWWTEGHHHHHH | soluble
7 | MSLSNDYPLVSIIIPTYNSSDYITETLTKLEKQTYPNFEIVIVNDGSKDNTSSVLREYGLTHSRLIIINKENGGVSSARNTGIRKAQGQFICFMDDDDEIDPNYLLKMYSRQHETGGDAIYCGLYGHHIKNGVTYSPINTDFNEGSLLFDFFYKKVRFHIGCLFIRKQLLEDNNLFFDEDLRLGEDLDFIYRLLITCDMYAVPYYMYKHNYRENSLMNSCRTITHYRHESFAHERIYSSVMQLYKGNRKEEIHTLLSKNRTYHKTRYLWNVLLNGDFELLNQLVESNEKELKDCNLLGKRDKRRAKILASKNYILWRMVRLVNRKKNKEGHHHHHH | soluble
8 | MSLSPAPTTMDFTPAPLEDTSSRPQFCKWPCECPPSPPRCPLGVSLITDGCECCKMCAQQLGDNCTEAAICDPHRGLYCDYSGDRPRYAIGVCAQVVGVGCVLDGVRYNNGQSFQPNCKYNCTCIDGAVGCTPLCLRVRPPRLWCPHPRRVSIPGHCCEQWVCEDDAKRPRKTAPRDTGAFDAVGEVEAWHRNCIAYTSPWSPCSTSCGLGVSTRISNVNAQCWPEQESRLCNLRPCDVDIHTLIKAGKKCLAVYQPEASMNFTLAGCISTRSYQPKYCGVCMDNRCCIPYKSKTIDVSFQCPDGLGFSRQVLWINACFCNLSCRNPNDIFADLESYPDFSEIANEGHHHHHH | not soluble
9 | MSLSPGKKRAMINRDHPKLSISQQCKLVSLSRSAFYYTPAGIDADTLSMMKEIDRVFTKYPFFGSRQIAAYLRREGIVVGRHRVRRLMAKMGLEAVYKRPRTSQPHPQHPVFPYLLRKMVIDRPNQVWCADITFVPVRNGFLYLVAIMDWATRKVLSWRLSNTMHADFCVEALSEAIARYGPPEIMNTDQGSQFTGSAWITTLTEAGVRISMDGRGRYLDNIFIERLWRSLKQEAIYLEEINEGFRARRVIKGWMAFYNTSRPHSALDRQTPDDAYWAGLEERHAAEGHHHHHH | not soluble
10 | MSLSPPGVRLFYDPRGHHAGAINELCWGLEEQGVPCQTITYDGGGDAAALGALAARSSPLRVGIGLSASGEIALTHAQLPADAPLATGHVTDSDDQLRTLGANAGQLVKVLPLSERN | soluble
11 | MSLSQEMIKKWLDEEGFLRMEVPDENARFHYVVNYPEDHVIDIIQPAGKDDMILIACATSVSPEHQAGIRALSMEKRTEFIWKVRFTLNRFGVDFQLDHPENVLNSYLVTDEIFFDGLSKDRLISSIKNVFRAKLQVMWMIQERFGEERPEHDSMYVEGHHHHHH | soluble
12 | MSLSQPRYLSESKVAIKQSSDINGSNLNVGLLLGTGNPSSAEDALYLKEYISSPDMLGVLDKQLNFRQAFGQSGWDFFYHLSEGATREQFLNYYRDRISVVYDDKTGLLTLGTQGFSPEFAEAFNQAVLKESEKFINEISHRIAREQLQFAEDEMQAARVRLNRSKTELLTYQNSNNVLDPEAQALAATSLVNTLVSQRIQMEAELRNLLTYLRDDAPQVISAQNALKSLSTQIDNEKNKITAPDGHKLNRMAVDFEEIKAKVQFDGEIYKLTLTSIEKTRVDAARKLKVLSVISSPQLPEESAFPNREGHHHHHH | soluble
13 | MSLSRITTDQLRHAVLDRGSFVSWDSEPLAVPVADSYARELAAARAATGADESVQTGEGRVFGRRVAVVACEFDFLGGSIGVAAAERITAAVERATAERLPLLASPSSGGTRMQEGTVAFLQMVKIAAAIQLHNQARLPYLVYLRHPTTGGVFASWGSLGHLTVAEPGALIGFLGPRVYELLYGDPFPSGVQTAENLRRHGIIDGVVALDRLRPMLDRALTVLIDAPEPLPAPQTPAPVPDVPTWDSVVASRRPDRPGVRQLLRHGATDRVLLSGTDQGEAATTLLALARFGGQPTVVLGQQRAVGGGGSTVGPAALREARRGMALAAELCLPLVLVIDAAGPALSAAAEQGGLAGQIAHCLAELVTLDTPTVSILLGQGSGGPALAMLPADRVLAALHGWLAPLPPEGASAIVFRDTAHAAELAAAQGIRSADLLKSGIVDTIVPEYPDAADEPIEFALRLSNAIAAEVHALRKIPAPERLATRLQRYRRIGLEGHHHHHH | not soluble
14 | MSLSRLSEKKGFNFNIIKNDPLDGHKGTNIGSISLDNIAPVFIDIENQKAFVDIGGMHARAEVEKGVKWITDKSQVEGEEAKAYWLCWVTTERSEQGPYYAGVTACYLLVNKSIRRGYKSMPEHVNMMDKSMKHQFIIDQIGDDNKQILKEFLQNHNVEMWNNSSEELYRTFEEGHHHHTTDPNSSSVDKLAAALEHHHHHH | soluble
15 | MSLSRLVVVSNRIAPPDEHAASAGGLAVGILGALKAAGGLWFGWSGETGNEDQPLKKVKKGNITWASFNLSEQDLDEYYNQFSNAVLWPAFHYRLDLVQFQRPAWDGYLRVNALLADKLLPLLQDDDIIWIHDYHLLPFAHELRKRGVNNRIGFFLHIPFPTPEIFNALPTYDTLLEQLCDYDLLGFQTENDRLAFLDCLSNLTRVTTRSAKSHTAWGKAFRTEVYPIGIEPKEIAKQAAGPLPPKLAQLKAELKNVQNIFSVERLDYSKGLPERFLAYEALLEKYPQHHGKIRYTQIAPTSRGDVQAYQDIRHQLENEAGRINGKYGQLGWTPLYYLNQHFDRKLLMKIFRYSDVGLVTPLRDGMNLVAKEYVAAQDPANPGVLVLSQFAGAANELTSALIVNPYDRDEVAAALDRALTMSLAERISRHAEMLDVIVKNDINHWQECFISDLKQIVPRSAESQQRDKVATFPKLAEGGSHHHHHH | soluble
16 | MSLSSGRTVPTRSHGLGKEGVSTTGASQVEFGDPELTARINDAMVQVEELLHTELSSGEDFLVDIVMHLTRAGGKRFRPMFALLASEFGEKPLSENVIKAAVVVEITHLATLYHDDVMDEASMRRGVPSANARWDNSVAILAGDILLAHASGLMSQLGTDTVAHFAETFGELVTGQMRETVGPRDTDPIEHYTNVIREKTGVLIASAGYLGAMHAGAAPEHIDALKNFGAAVGMIFQIVDDIIDIFSETHESGKTPGTDLREGVFTLPVLYALREDTPVGAELRDILTGPLEDDETVNHVLELLSQSGGRQAALDEVYRYMDIANAELDRLPDSTVKEALRNLATFTVKRVGEGHHHHHH | soluble
17 | MSLSSLGEELETKISEEVGFKPLGIKRILPAASTKLPFASLDNFAIDNHNNKYAAASGELLICGDLQKLREYVTNDNEEDNYEPEYKHEISNIIALKFMNGKLILVTKSGRICEYSTENLNQELMNHELKLDLVSVKTLPSKIIMLDSSNVLKGLSLSNLNLENIAENISSFDVLYDKLVYISVLKDIYVSDTISNGVNKEIILPESLSEELDDGYEALDIKILSENEYFVVFGNNVSPDESDPSYDHKTYVVSQKEESVVYQETFDIAPAFASVLRYPCYYNVILPGIFEEDKNVNIIGSATSSEISVWDSVNVVQPDQDSERAVFPISKETDEDTTPIGMCLDFSTVGEIPEPCPGVDNTDSLPLVYSLTNEGFLQINGFYHTGLIKAGKYDIKLLGERIYSIYEQDGGEVEEGHHHHHH | soluble
18 | MSLSTIDLHVHSNYSDGIHPPADLVKMAAERGLVAIAIADHDTVDGIDEALIAGARLGVEVVPAVELSAEHGRYRDMHILGYHLDHRDPRLVDMLAEFRINREIRGRAIVDKINQRLADGRKPLLSYDEVLNLAEGAVGRPHIGRMLIERGYARNMEDAFRRYLIPCNVPKRYIPAGDAITEIRRAGGVAVLAHPITVSDDRQVLRGIVSELVALGLDGIEVFNNMCYKDDMLFLEFLCRESGLLMTGGSDFHGFEDDVEIGSGREGHHHHHH | not soluble
19 | MSLSTPIQAEPPNLSLIRKEIKNYYDSGLYYHELERTIKLAQEYIHQQYLINKNNKHPQKLAIVLDIDETSLSNYDKMVKRDFTGSKEQIHKEILAANSPAIKPMLTLYKNALKQGIKVFFVTGRQESERDATRANLIKAGYTKWAGLYLRPNGYSSPSIIPFKSKAREMIAKKGYTIIASIGDQCSDIQGGYTKKGFKLPNPFYYLPEGHHHHHH | soluble
